According to article PMC9352680, “A comprehensive thermodynamic model for RNA binding by the Saccharomyces cerevisiae Pumilio protein PUF4”:

T1: PUF4 RNA-binding domain (Saccharomyces cerevisiae, UniProt P25339 537-888)
T1 sequence: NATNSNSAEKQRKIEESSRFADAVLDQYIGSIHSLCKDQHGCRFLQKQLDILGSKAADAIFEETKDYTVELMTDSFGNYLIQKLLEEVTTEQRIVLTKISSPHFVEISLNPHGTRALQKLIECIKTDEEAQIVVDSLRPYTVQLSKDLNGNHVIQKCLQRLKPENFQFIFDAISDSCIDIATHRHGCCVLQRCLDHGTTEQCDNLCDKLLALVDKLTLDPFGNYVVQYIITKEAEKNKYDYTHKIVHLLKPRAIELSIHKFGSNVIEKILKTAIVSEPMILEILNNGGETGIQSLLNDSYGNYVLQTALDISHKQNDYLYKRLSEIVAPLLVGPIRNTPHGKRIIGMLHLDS


Target: T1, PUF4 RNA-binding domain
Test: Mg; RNA-MaP; 20 mM Na-HEPES pH 7.4, 30 mM KOAc, 0.75 mM MgCl2, 0.1% Tween-20, 5% glycerol, 0.1 mg/mL BSA, 2 mM DTT; 25 C; 0.0125-409.6 nM protein
Conditions: tags: N-His6-TEV cleaved; C-SNAP kept, Cy3B-labelled; label: tethered on chip by stalled RNA polymerase

Row | Binder | Kd [nM]
1 | Id_ii_S2_P3E.4_K3.3_C3.2_[C-2A]_H3.3_A3.1_F3.1_T3.2_[T9A] (ssRNA) RNA: UUUGAUUAAUAUGAUAUCGUUCUUUCUAUACACUAUAAAUUCUUUCUCGAUAUCAUAUUAAUCUUU | 27.3
2 | Id_ii_S2_P3E.4_K3.3_C3.2_[T-1C]_H3.3_A3.1_F3.1_T3.2_[T9C]_[A10T] (ssRNA) RNA: UUUGAUUAAUAUGAUAUCGUUCUUUCUCCACACUAUACUUUCUUUCUCGAUAUCAUAUUAAUCUUU | 1080
3 | Id_ii_S2_P3E.4_K3.3_C3.2_H3.3_A3.1_F3.1_T3.2_[A10T] (ssRNA) RNA: UUUGAUUAAUAUGAUAUCGUUCUUUCUCUACACUAUAUUUUCUUUCUCGAUAUCAUAUUAAUCUUU | 399
4 | Id_ii_S2_P3E.4_K3.3_C3.2_[T-1C]_H3.3_A3.1_F3.1_T3.2 (ssRNA) RNA: UUUGAUUAAUAUGAUAUCGUUCUUUCUCCACACUAUAUAUUCUUUCUCGAUAUCAUAUUAAUCUUU | 194
5 | Id_ii_S2_P3E.4_K3.3_C3.2_[T-1A]_H3.3_A3.1_F3.1_T3.2_[T9C]_[A10G] (ssRNA) RNA: UUUGAUUAAUAUGAUAUCGUUCUUUCUCAACACUAUACGUUCUUUCUCGAUAUCAUAUUAAUCUUU | > 2300
6 | Id_ii_S2_P3E.4_K3.3_C3.2_[T-1A]_H3.3_A3.1_F3.1_T3.2_[T9C]_[A10C] (ssRNA) RNA: UUUGAUUAAUAUGAUAUCGUUCUUUCUCAACACUAUACCUUCUUUCUCGAUAUCAUAUUAAUCUUU | 2100
7 | Id_ii_S2_P3E.4_K3.3_C3.2_[T-1A]_H3.3_A3.1_F3.1_T3.2_[T9C]_[A10T] (ssRNA) RNA: UUUGAUUAAUAUGAUAUCGUUCUUUCUCAACACUAUACUUUCUUUCUCGAUAUCAUAUUAAUCUUU | > 2300
8 | Id_ii_S2_P3E.4_K3.3_C3.2_H3.3_A3.1_F3.1_T3.2_[T9A]_[A10T] (ssRNA) RNA: UUUGAUUAAUAUGAUAUCGUUCUUUCUCUACACUAUAAUUUCUUUCUCGAUAUCAUAUUAAUCUUU | 776
9 | Id_ii_S2_P3E.4_K3.3_C3.2_[T-1C]_H3.3_A3.1_F3.1_T3.2_[T9C]_[A10C] (ssRNA) RNA: UUUGAUUAAUAUGAUAUCGUUCUUUCUCCACACUAUACCUUCUUUCUCGAUAUCAUAUUAAUCUUU | 1460
10 | Id_ii_S2_P3E.4_K3.3_C3.2_[T-1A]_H3.3_A3.1_F3.1_T3.2_[T9G]_[A10C] (ssRNA) RNA: UUUGAUUAAUAUGAUAUCGUUCUUUCUCAACACUAUAGCUUCUUUCUCGAUAUCAUAUUAAUCUUU | > 2300
11 | Id_ii_S2_P3E.4_K3.3_C3.2_H3.3_A3.1_F3.1_T3.2_[T9G]_[A10C] (ssRNA) RNA: UUUGAUUAAUAUGAUAUCGUUCUUUCUCUACACUAUAGCUUCUUUCUCGAUAUCAUAUUAAUCUUU | 1600
12 | Id_ii_S2_P3E.4_K3.3_C3.2_[T-1G]_H3.3_A3.1_F3.1_T3.2_[A10T] (ssRNA) RNA: UUUGAUUAAUAUGAUAUCGUUCUUUCUCGACACUAUAUUUUCUUUCUCGAUAUCAUAUUAAUCUUU | 1500
13 | Id_ii_S2_P3E.4_K3.3_C3.2_H3.3_A3.1_F3.1_T3.2_[T9A] (ssRNA) RNA: UUUGAUUAAUAUGAUAUCGUUCUUUCUCUACACUAUAAAUUCUUUCUCGAUAUCAUAUUAAUCUUU | 454
14 | Id_ii_S2_P3E.4_K3.3_C3.2_[T-1A]_H3.3_A3.1_F3.1_T3.2_[T9A]_[A10T] (ssRNA) RNA: UUUGAUUAAUAUGAUAUCGUUCUUUCUCAACACUAUAAUUUCUUUCUCGAUAUCAUAUUAAUCUUU | > 2300
15 | Id_ii_S2_P3E.4_K3.3_C3.2_[T-1C]_H3.3_A3.1_F3.1_T3.2_[T9A]_[A10T] (ssRNA) RNA: UUUGAUUAAUAUGAUAUCGUUCUUUCUCCACACUAUAAUUUCUUUCUCGAUAUCAUAUUAAUCUUU | 1890
16 | Id_ii_S2_P3E.4_K3.3_C3.2_[T-1A]_H3.3_A3.1_F3.1_T3.2_[A10T] (ssRNA) RNA: UUUGAUUAAUAUGAUAUCGUUCUUUCUCAACACUAUAUUUUCUUUCUCGAUAUCAUAUUAAUCUUU | 1130
17 | Id_ii_S2_P3E.4_K3.3_C3.2_[C-2A]_H3.3_A3.1_F3.1_T3.2_[A10C] (ssRNA) RNA: UUUGAUUAAUAUGAUAUCGUUCUUUCUAUACACUAUAUCUUCUUUCUCGAUAUCAUAUUAAUCUUU | 11.8
18 | Id_ii_S2_P3E.4_K3.3_C3.2_H3.3_A3.1_F3.1_T3.2_[A10C] (ssRNA) RNA: UUUGAUUAAUAUGAUAUCGUUCUUUCUCUACACUAUAUCUUCUUUCUCGAUAUCAUAUUAAUCUUU | 343
19 | UCUCUUUGUCUUAUAAUCUCUU (ssRNA) [Ib_S1_P5E.1_K5.1_C5.1_H5.1_[A4C]_A5.1_F5.1_[T9A]_T5.1] | 102
20 | UCUCUUUGUUUUAUAAUCUCUU (ssRNA) [Ib_S1_P5E.1_K5.1_C5.1_H5.1_[A4T]_A5.1_F5.1_[T9A]_T5.1] | 87.4
21 | UCUCUUUGUCUUAUCAUCUCUU (ssRNA) [Ib_S1_P5E.1_K5.1_C5.1_H5.1_[A4C]_A5.1_F5.1_[T9C]_T5.1] | 2040
22 | Id_ii_S2_P4E.2_K4.1_C4.2_[C-2G]_[T-1G]_H4.1_A4.1_F4.1_T4.2_[G10T] (ssRNA) RNA: UUUGAUUAAUAUGAUAUCGUUCUUUCUGGUGUAUAUUAUUUUCUUUCUCGAUAUCAUAUUAAUCUUU | 0.435

Row | Binder | Kd [nM]
23 | Id_ii_S2_P4E.2_K4.1_C4.2_[C-2T]_[T-1G]_H4.1_A4.1_F4.1_T4.2_[G10T]_[T11G] (ssRNA) RNA: UUUGAUUAAUAUGAUAUCGUUCUUUCUUGUGUAUAUUAUGUUCUUUCUCGAUAUCAUAUUAAUCUUU | 0.416
24 | Id_ii_S2_P4E.2_K4.1_C4.2_[C-2G]_H4.1_A4.1_F4.1_T4.2_[G10T]_[T11A] (ssRNA) RNA: UUUGAUUAAUAUGAUAUCGUUCUUUCUGUUGUAUAUUAUAUUCUUUCUCGAUAUCAUAUUAAUCUUU | 0.928
25 | Id_ii_S2_P4E.2_K4.1_C4.2_[C-2G]_[T-1C]_H4.1_A4.1_F4.1_T4.2_[G10T]_[T11G] (ssRNA) RNA: UUUGAUUAAUAUGAUAUCGUUCUUUCUGCUGUAUAUUAUGUUCUUUCUCGAUAUCAUAUUAAUCUUU | 0.82
26 | Id_ii_S2_P4E.2_K4.1_C4.2_[C-2G]_[T-1C]_H4.1_A4.1_F4.1_T4.2_[G10A] (ssRNA) RNA: UUUGAUUAAUAUGAUAUCGUUCUUUCUGCUGUAUAUUAAUUUCUUUCUCGAUAUCAUAUUAAUCUUU | 0.535
27 | Id_ii_S2_P4E.2_K4.1_C4.2_[C-2G]_[T-1C]_H4.1_A4.1_F4.1_T4.2_[G10A]_[T11A] (ssRNA) RNA: UUUGAUUAAUAUGAUAUCGUUCUUUCUGCUGUAUAUUAAAUUCUUUCUCGAUAUCAUAUUAAUCUUU | 0.738
28 | Id_ii_S2_P4E.2_K4.1_C4.2_[C-2G]_H4.1_A4.1_F4.1_T4.2_[G10T]_[T11C] (ssRNA) RNA: UUUGAUUAAUAUGAUAUCGUUCUUUCUGUUGUAUAUUAUCUUCUUUCUCGAUAUCAUAUUAAUCUUU | 1.6
29 | Id_ii_S2_P4E.2_K4.1_C4.2_[C-2G]_[T-1C]_H4.1_A4.1_F4.1_T4.2_[G10T] (ssRNA) RNA: UUUGAUUAAUAUGAUAUCGUUCUUUCUGCUGUAUAUUAUUUUCUUUCUCGAUAUCAUAUUAAUCUUU | 0.289
30 | Id_ii_S2_P4E.2_K4.1_C4.2_[C-2T]_[T-1G]_H4.1_A4.1_F4.1_T4.2_[G10T] (ssRNA) RNA: UUUGAUUAAUAUGAUAUCGUUCUUUCUUGUGUAUAUUAUUUUCUUUCUCGAUAUCAUAUUAAUCUUU | 0.23
31 | Id_ii_S2_P4E.2_K4.1_C4.2_[C-2G]_H4.1_A4.1_F4.1_T4.2_[G10A]_[T11A] (ssRNA) RNA: UUUGAUUAAUAUGAUAUCGUUCUUUCUGUUGUAUAUUAAAUUCUUUCUCGAUAUCAUAUUAAUCUUU | 0.659
32 | Id_ii_S2_P4E.2_K4.1_C4.2_[C-2G]_H4.1_A4.1_F4.1_T4.2_[G10A] (ssRNA) RNA: UUUGAUUAAUAUGAUAUCGUUCUUUCUGUUGUAUAUUAAUUUCUUUCUCGAUAUCAUAUUAAUCUUU | 0.724
33 | Id_ii_S2_P4E.2_K4.1_C4.2_[C-2G]_[T-1C]_H4.1_A4.1_F4.1_T4.2_[G10T]_[T11A] (ssRNA) RNA: UUUGAUUAAUAUGAUAUCGUUCUUUCUGCUGUAUAUUAUAUUCUUUCUCGAUAUCAUAUUAAUCUUU | 0.822
34 | Id_ii_S2_P4E.2_K4.1_C4.2_[C-2G]_[T-1G]_H4.1_A4.1_F4.1_T4.2_[G10A]_[T11A] (ssRNA) RNA: UUUGAUUAAUAUGAUAUCGUUCUUUCUGGUGUAUAUUAAAUUCUUUCUCGAUAUCAUAUUAAUCUUU | 1.5
35 | Id_ii_S2_P4E.2_K4.1_C4.2_[C-2T]_[T-1G]_H4.1_A4.1_F4.1_T4.2_[G10A] (ssRNA) RNA: UUUGAUUAAUAUGAUAUCGUUCUUUCUUGUGUAUAUUAAUUUCUUUCUCGAUAUCAUAUUAAUCUUU | 0.4
36 | Id_ii_S2_P4E.2_K4.1_C4.2_[C-2T]_[T-1G]_H4.1_A4.1_F4.1_T4.2_[G10T]_[T11C] (ssRNA) RNA: UUUGAUUAAUAUGAUAUCGUUCUUUCUUGUGUAUAUUAUCUUCUUUCUCGAUAUCAUAUUAAUCUUU | 0.441
37 | Id_ii_S2_P4E.2_K4.1_C4.2_[C-2T]_[T-1G]_H4.1_A4.1_F4.1_T4.2_[G10A]_[T11A] (ssRNA) RNA: UUUGAUUAAUAUGAUAUCGUUCUUUCUUGUGUAUAUUAAAUUCUUUCUCGAUAUCAUAUUAAUCUUU | 0.532
38 | Id_ii_S2_P4E.2_K4.1_C4.2_[C-2G]_H4.1_A4.1_F4.1_T4.2_[G10T]_[T11G] (ssRNA) RNA: UUUGAUUAAUAUGAUAUCGUUCUUUCUGUUGUAUAUUAUGUUCUUUCUCGAUAUCAUAUUAAUCUUU | 0.585
39 | Id_ii_S2_P4E.2_K4.1_C4.2_[C-2G]_[T-1C]_H4.1_A4.1_F4.1_T4.2_[G10C] (ssRNA) RNA: UUUGAUUAAUAUGAUAUCGUUCUUUCUGCUGUAUAUUACUUUCUUUCUCGAUAUCAUAUUAAUCUUU | 0.667
40 | Id_ii_S2_P4E.2_K4.1_C4.2_[C-2G]_H4.1_A4.1_F4.1_T4.2_[G10C]_[T11C] (ssRNA) RNA: UUUGAUUAAUAUGAUAUCGUUCUUUCUGUUGUAUAUUACCUUCUUUCUCGAUAUCAUAUUAAUCUUU | 1.8
41 | Id_ii_S2_P4E.2_K4.1_C4.2_[C-2G]_[T-1C]_H4.1_A4.1_F4.1_T4.2_[G10C]_[T11C] (ssRNA) RNA: UUUGAUUAAUAUGAUAUCGUUCUUUCUGCUGUAUAUUACCUUCUUUCUCGAUAUCAUAUUAAUCUUU | 1.25
42 | UCUCUUUGUGUUAUAAUCUCUU (ssRNA) [Ib_S1_P5E.1_K5.1_C5.1_H5.1_[A4G]_A5.1_F5.1_[T9A]_T5.1] | 57.8
43 | UCUCUUUGUAUUAUUCUCUCUU (ssRNA) [Ia_S1_P5E.1_K5.1_C5.1_H5.1_A5.1_F5.1_[A10C]_T5.1] | 16.4
